Broadly, the Kd is the constant that tells how readily two partners part at equilibrium. Lower therefore signals a tighter complex.

The target of experiment [1] is T1, FGFR1-IIIb (human, UniProt P11362-19 22-376, limits assumed).
T1 construct: Soluble FGFR antigen in SPR
T1 sequence (looked up): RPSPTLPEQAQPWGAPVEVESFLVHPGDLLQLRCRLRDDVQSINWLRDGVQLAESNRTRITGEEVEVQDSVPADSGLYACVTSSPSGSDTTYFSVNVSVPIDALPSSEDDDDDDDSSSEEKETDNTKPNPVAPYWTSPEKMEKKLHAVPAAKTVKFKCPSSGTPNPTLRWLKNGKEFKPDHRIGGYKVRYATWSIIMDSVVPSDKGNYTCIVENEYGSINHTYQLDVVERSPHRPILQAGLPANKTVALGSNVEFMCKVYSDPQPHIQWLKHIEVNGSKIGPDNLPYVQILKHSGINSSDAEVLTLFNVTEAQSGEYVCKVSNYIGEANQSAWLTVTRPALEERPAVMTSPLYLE
The experiment in a line: SPR. (In general: Surface plasmon resonance follows binding to a sensor surface in real time, without labels.)
Procedure: (§1) A saturated amount of anti-human Fc monoclonal antibody was immobilized onto a CM5 biosensor chip by following the product instructions. […] FGFR antigens of various concentrations were injected at a flow rate 30 μL/min. After each binding cycle, flow cells were regenerated using 3M MgCl₂. Kinetic analyses were performed using the T100 evaluation software to obtain the kinetic and affinity constants.
(§2) 1.3 variants were determined by capturing FGFR4-Fc and flowing the antibody Fab fragments (Table 12).

Experiment [2] addresses T2, FGFR3-IIIc (human, UniProt P22607 23-375, limits assumed).
T2 construct: also called human FGFR3-IIIc
T2 sequence: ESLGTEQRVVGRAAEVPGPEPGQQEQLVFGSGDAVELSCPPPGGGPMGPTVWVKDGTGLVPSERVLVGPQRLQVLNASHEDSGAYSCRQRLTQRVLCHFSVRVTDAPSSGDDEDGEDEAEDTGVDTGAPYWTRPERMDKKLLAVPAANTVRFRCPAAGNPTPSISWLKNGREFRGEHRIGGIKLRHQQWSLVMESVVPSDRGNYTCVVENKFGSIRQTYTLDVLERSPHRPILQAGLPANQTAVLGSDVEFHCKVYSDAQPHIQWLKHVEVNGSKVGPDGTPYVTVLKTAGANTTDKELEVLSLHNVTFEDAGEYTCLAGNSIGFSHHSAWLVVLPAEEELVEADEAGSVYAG
As to the kind of experiment: SPR.
Procedure: as §1, §2

For a further experiment, the target named is T3, FGFR2-IIIb (D2D3) (human).
T3 construct: also called human FGFR2-IIIb ECD (residue 140-369)
T3 chain: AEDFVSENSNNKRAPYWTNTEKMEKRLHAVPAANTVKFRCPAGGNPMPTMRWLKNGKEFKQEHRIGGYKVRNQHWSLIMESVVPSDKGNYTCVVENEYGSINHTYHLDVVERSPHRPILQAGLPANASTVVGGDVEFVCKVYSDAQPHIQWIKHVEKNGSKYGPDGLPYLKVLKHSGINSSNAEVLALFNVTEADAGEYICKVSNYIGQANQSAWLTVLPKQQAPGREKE
The experiment in a line: SPR (Biacore).

In experiment [3] the target is T2, FGFR3-IIIc. The experiment in a line: SPR (Biacore T100), IgG captured by anti-human Fc, FGFR flowed.
Procedure: as §1
A further experiment addresses T4, FGFR4 (human, UniProt P22455 22-369, limits assumed).
T4 construct: also called human FGFR4; FGFR4-His
T4 sequence (looked up): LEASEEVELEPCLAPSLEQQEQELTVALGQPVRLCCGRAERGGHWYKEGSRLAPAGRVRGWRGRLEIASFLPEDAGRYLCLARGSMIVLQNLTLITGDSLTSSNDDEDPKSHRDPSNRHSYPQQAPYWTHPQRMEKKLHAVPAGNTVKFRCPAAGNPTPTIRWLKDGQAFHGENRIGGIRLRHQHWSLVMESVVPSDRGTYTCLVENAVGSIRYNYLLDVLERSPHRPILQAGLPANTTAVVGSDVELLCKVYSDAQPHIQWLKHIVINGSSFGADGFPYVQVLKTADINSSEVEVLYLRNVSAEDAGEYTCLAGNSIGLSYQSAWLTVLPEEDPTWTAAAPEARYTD
The experiment in a line: blocking ELISA: FGFR4-Fc captured on an anti-human Fc plate, antibody titrated, FGF-19 (with heparin) is the ligand, bound FGF-19 read as OD450. On the technique in general: In an ELISA, binding on a coated surface is turned into a signal by an enzyme label.

Experiment [4] deals with T5, FGFR2-IIIc (human, UniProt P21802 22-377).
T5 construct: also called human FGFR2-IIIc; FGFR2-IIIc-His
T5 sequence (P21802 22-377 limits assumed): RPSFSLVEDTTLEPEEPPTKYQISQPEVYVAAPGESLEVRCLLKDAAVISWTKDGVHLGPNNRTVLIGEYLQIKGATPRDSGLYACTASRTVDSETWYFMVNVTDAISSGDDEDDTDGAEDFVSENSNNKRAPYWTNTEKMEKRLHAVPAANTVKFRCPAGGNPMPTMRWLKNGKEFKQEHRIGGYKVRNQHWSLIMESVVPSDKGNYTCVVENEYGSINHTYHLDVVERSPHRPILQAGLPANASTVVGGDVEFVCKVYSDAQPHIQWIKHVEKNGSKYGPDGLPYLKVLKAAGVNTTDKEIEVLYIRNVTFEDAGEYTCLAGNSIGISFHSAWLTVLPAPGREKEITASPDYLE
As to the kind of experiment: blocking ELISA: FGFR2-IIIc-Fc captured on an anti-human Fc plate, antibody titrated, FGF-1 (with heparin) is the ligand, bound FGF-1 read as OD450.
Procedure: (§3) The plate was washed 5 times before being added with the antibody and FGF ligand mixtures, which was prepared as 49 μL 100 ng/mL FGF ligand, 1 μL 25 mg/mL Heparin (Sigma-Aldrich) and 50 μL antibody dilutions. After shaking at RT for 2 h, the plate was washed 5 times. Bound ligand was detected by subsequent incubations at RT with 0.5 μg/mL biotinylated anti-FGF antibodies (R&D Biosystems) for 0.5 h, 1:2,500-diluted Streptavidin-HRP (Invitrogen) for 0.5 h and the TMB substrate until enough color development.

Experiment [5] has as its target T2, FGFR3-IIIc. As to the kind of experiment: blocking ELISA: FGFR3-IIIc-Fc captured on an anti-human Fc plate, antibody titrated, FGF-1 (with heparin) is the blocked ligand, bound FGF-1 read as OD450.
Procedure: as §3
Another experiment deals with T6, FGFR4-Fc (human, UniProt P22455 22-369).
T6 sequence (looked up): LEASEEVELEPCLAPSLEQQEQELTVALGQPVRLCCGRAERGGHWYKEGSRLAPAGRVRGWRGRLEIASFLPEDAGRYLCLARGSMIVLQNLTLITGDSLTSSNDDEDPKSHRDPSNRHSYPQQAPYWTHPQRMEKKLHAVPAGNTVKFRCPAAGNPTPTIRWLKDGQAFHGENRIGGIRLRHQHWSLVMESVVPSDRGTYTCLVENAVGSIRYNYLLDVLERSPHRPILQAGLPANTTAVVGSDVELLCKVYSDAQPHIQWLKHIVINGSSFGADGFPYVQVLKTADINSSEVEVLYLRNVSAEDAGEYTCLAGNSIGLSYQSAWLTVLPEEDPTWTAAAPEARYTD
The experiment in a line: SPR, FGFR4-Fc captured, Fab flowed; FGFR4-Fc captured, Fab flowed.

Experiment [6] addresses T5, FGFR2-IIIc. The experiment in a line: SPR.
Procedure: as §1, §2
The target in experiment [7] is T2, FGFR3-IIIc. The experiment in a line: surface plasmon resonance (Biacore).
In experiment [8] the target is T5, FGFR2-IIIc. As to the kind of experiment: SPR (Biacore T100), IgG captured by anti-human Fc, FGFR flowed.
Procedure: as §1
Experiment [9] addresses T5, FGFR2-IIIc. As to the kind of experiment: blocking ELISA: FGFR2-IIIc-Fc captured on an anti-human Fc plate, antibody titrated, FGF-1 (with heparin) is the blocked ligand, bound FGF-1 read as OD450.
Procedure: as §3
Experiment [10] has as its target T1, FGFR1-IIIb. As to the kind of experiment: SPR (Biacore T100), IgG captured by anti-human Fc, FGFR flowed.
Procedure: as §1
A further experiment concerns the target T7, FGFR4-6xHis (human, UniProt P22455 22-369, limits assumed).
T7 sequence: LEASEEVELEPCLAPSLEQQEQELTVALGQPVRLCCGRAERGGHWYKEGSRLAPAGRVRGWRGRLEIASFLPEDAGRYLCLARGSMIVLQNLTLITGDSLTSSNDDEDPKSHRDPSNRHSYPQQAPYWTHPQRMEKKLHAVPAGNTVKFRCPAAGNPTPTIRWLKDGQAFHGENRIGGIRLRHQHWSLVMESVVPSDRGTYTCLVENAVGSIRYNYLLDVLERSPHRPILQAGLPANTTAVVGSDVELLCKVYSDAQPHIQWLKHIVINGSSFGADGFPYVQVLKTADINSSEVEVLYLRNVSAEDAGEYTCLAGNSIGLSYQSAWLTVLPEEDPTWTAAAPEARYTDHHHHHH
The experiment in a line: SPR, IgG captured, FGFR4-6xHis flowed.

Procedure for FGFR4-6xHis: as §1, §2

B1: R3Mab (antibody, human IgG1, kappa, V domains shown)
VH: EVQLVESGGGLVQPGGSLRLSCAASGFTFTSTGISWVRQAPGKGLEWVGRIYPTNGSTNYADSVKGRFTISADTSKNTAYLQMNSLRAEDTAVYYCARTYGIYDLYVDYTEYVMDYWGQGTLVTVSS
VL: DIQMTQSPSSLSASVGDRVTITCRASQDVDTSLAWYKQKPGKAPKLLIYSASFLYSGVPSRFSGSGSGTDFTLTISSLQPEDFATYYCQQSTGHPQTFGQGTKVEIKR
notes: IgG in SPR; also called parental anti-FGFR3 antibody
Consider B1, for which the binding result with FGFR1-IIIb [1] was “no binding”; in the experiment with FGFR2-IIIb (D2D3) it was “no binding (tested: 200 nM)”; in the experiment with FGFR4 it was “no binding (tested: 500 nM)”; with FGFR2-IIIc [4], “no binding (tested: 128 nM)”. For the same molecule, the Kd with FGFR3-IIIc [2] and with FGFR3-IIIc [3] was 0.61 nM each time. Also, in the experiment with FGFR3-IIIc [5], the “IC50 (read off the curve)” value fell in the range of 2 to 3 nM.

B2: Fab fragment of Mab 2B.1.3 (Fab, V domains shown)
VH: EVQLVESGGGLVQPGGSLRLSCAASGFTFTSTGISWVRQAPGKGLEWVGRTHLGDGSTNYADSVKGRFTISADTSKNTAYLQMNSLRAEDTAVYYCARTYGIYDLYVDYTEYVMDYWGQGTLVTVSS
VL: DIQMTQSPSSLSASVGDRVTITCRASQDVDTSLAWYKQKPGKAPKLLIYSASFLYSGVPSRFSGSGSGTDFTLTISSLQPEDFATYYCQQSTGHPQTFGQGTKVEIKR
notes: Fab; also called 2B.1.3 Fab; Fab 2B.1.3
Molecule B2 gave a dissociation constant Kd with FGFR4-Fc of 32 nM.

B3: 2B.1.3 (antibody, human IgG1, kappa, V domains shown)
VH: EVQLVESGGGLVQPGGSLRLSCAASGFTFTSTGISWVRQAPGKGLEWVGRTHLGDGSTNYADSVKGRFTISADTSKNTAYLQMNSLRAEDTAVYYCARTYGIYDLYVDYTEYVMDYWGQGTLVTVSS
VL: DIQMTQSPSSLSASVGDRVTITCRASQDVDTSLAWYKQKPGKAPKLLIYSASFLYSGVPSRFSGSGSGTDFTLTISSLQPEDFATYYCQQSTGHPQTFGQGTKVEIKR
notes: Full IgG1/kappa chains; also called Mab 2B.1.3
On to B3, for which, in the experiment with FGFR1-IIIb [1], the binding result is recorded as “no binding”. Also, the Kd with FGFR2-IIIc [6] is 2 nM; in the experiment with FGFR3-IIIc [2] it was 0.07 nM; with FGFR2-IIIb (D2D3), 0.71 nM; with FGFR3-IIIc [7], 0.0834 nM; in the experiment with FGFR2-IIIc [8], 2 nM; in the experiment with FGFR3-IIIc [3], 0.07 nM. In addition, the “IC50 (read off the curve)” value is approximately 5 nM with FGFR2-IIIc [9] and 2 to 3 nM with FGFR3-IIIc [5].

B4: 2B.1.3.12 (antibody, human IgG1, kappa, V domains shown)
VH: EVQLVESGGGLVQPGGSLRLSCAASGFPFTSTGISWVRQAPGKGLEWVGRTHLGDGSTNYADSVKGRFTISADTSKNTAYLQMNSLRAEDTAVYYCARTYGIYDTYDMYTEYVMDYWGQGTLVTVSS
VL: DIQMTQSPSSLSASVGDRVTITCRASQDVDTSLAWYKQKPGKAPKLLIYSASFLYSGVPSRFSGSGSGTDFTLTISSLQPEDFATYYCQQSTGHPQTFGQGTKVEIKR
notes: Full IgG1/kappa chains; also called Mab 2B.1.3.12
Regarding B4, the Kd stood at 6.1 nM with FGFR2-IIIc [6]; 0.72 nM in the experiment with FGFR3-IIIc [2]; 0.28 nM in the experiment with FGFR3-IIIc [7]; 6.1 nM with FGFR2-IIIc [8]; 0.72 nM with FGFR3-IIIc [3]. Further, in the experiment with FGFR1-IIIb [10], the binding result is given as “no binding (tested: 500 nM)”. The “IC50 (read off the curve)” value in the experiment with FGFR3-IIIc [5] lay within 2 to 3 nM.

B5: 2B.1.3.10 (antibody, human IgG1, kappa, V domains shown)
VH: EVQLVESGGGLVQPGGSLRLSCAASGFPFTSQGISWVRQAPGKGLEWVGRTHLGDGSTNYADSVKGRFTISADTSKNTAYLQMNSLRAEDTAVYYCARTYGIYDTYDKYTEYVMDYWGQGTLVTVSS
VL: DIQMTQSPSSLSASVGDRVTITCRASQDVDTSLAWYKQKPGKAPKLLIYSASFLYSGVPSRFSGSGSGTDFTLTISSLQPEDFATYYCQQSTGHPQTFGQGTKVEIKR
notes: Full IgG1/kappa chains; also called Mab 2B.1.3.10
On to B5, for which the binding result with FGFR1-IIIb [10] is on record as “no binding (tested: 500 nM)”. Further, the results for the Kd in the experiment with FGFR2-IIIc [8] and with FGFR3-IIIc [3] were 1.1 nM and 0.25 nM, respectively. Besides, the “IC50 (read off the curve)” value in the experiment with FGFR3-IIIc [5] is 2 to 3 nM.

B6: 2B.1.1 (antibody, human IgG1, kappa, V domains shown)
VH: EVQLVESGGGLVQPGGSLRLSCAASGFTFTSTGISWVRQAPGKGLEWVGRYWAWDGSTNYADSVKGRFTISADTSKNTAYLQMNSLRAEDTAVYYCARTYGIYDLYVDYTEYVMDYWGQGTLVTVSS
VL: DIQMTQSPSSLSASVGDRVTITCRASQDVDTSLAWYKQKPGKAPKLLIYSASFLYSGVPSRFSGSGSGTDFTLTISSLQPEDFATYYCQQSTGHPQTFGQGTKVEIKR
notes: Full IgG1/kappa chains
As to B6, the binding result in the experiment with FGFR1-IIIb [1] is “no binding”. Further, the Kd with FGFR2-IIIc [6] came out at 2.8 nM; with FGFR4-6xHis it was 2.8 nM; with FGFR3-IIIc [7] it was 0.0663 nM.

Values taken from patent publication US20160244525A1 (Genentech, published 2016).
